The labels stand for the following.
B1: IgG1-F147 (antibody)
heavy: QVQLQESGPGLVKPSETLSLTCAVSGHSISHDHAWSWVRQPPGEGLEWIGFISYSGITNYNPSLQGRVTISRDNSKNTLYLQMNSLRAEDTAVYYCARSLARTTAMDYWGEGTLVTVSSASTKGPSVFPLAPSSKSTSGGTAALGCLVKDYFPEPVTVSWNSGALTSGVHTFPAVLQSSGLYSLSSVVTVPSSSLGTQTYICNVNHKPSNTKVDKKVEPKSCDKTHTCPPCPAPELLGGPSVFLFPPKPKDTLYISRTPEVTCVVVDVSHEDPEVKFNWYVDGVEVHNAKTKPREEQYNSTYRVVSVLTILHQDWLNGKEYKCKVSNKALPAPIEKTISKAKGQPREPQVYTLPPSRDELTKNQVSLTCLVKGFYPSDIAVEWESNGQPENNYKTTPPVLDSDGSFFLYSKLTVDKSRWQQGNVFSCSVMHEALHYHYTQKSLSLSP
light: not shown
notes: EU numbering; copies: 2 + 2
B2: IgG1-F162 (antibody)
heavy: QVQLQESGPGLVKPSETLSLTCAVSGHSISHDHAWSWVRQPPGEGLEWIGFISYSGITNYNPSLQGRVTISRDNSKNTLYLQMNSLRAEDTAVYYCARSLARTTAMDYWGEGTLVTVSSASTKGPSVFPLAPSSKSTSGGTAALGCLVKDYFPEPVTVSWNSGALTSGVHTFPAVLQSSGLYSLSSVVTVPSSSLGTQTYICNVNHKPSNTKVDKKVEPKSCDKTHTCPPCPAPELLGGPSVFLFPPKPKDTLWISRTPEVTCVVVDVSHEDPEVKFNWYVDGVEVHNAKTKPREEQYNSTYRVVSVLTVLHQDWLNGKEYKCKVSNKALPAPIEKTISKAKGQPREPQVYTLPPSRDELTKNQVSLTCLVKGFYPSDIAVEWESNGQPENNYKTTPPVLDSDGSFFLYSKLTVDKSRWQQGNVFSCSVYHEALHYHYTQKSLSLSP
light: not shown
notes: EU numbering; copies: 2 + 2
B3: IgG1-F160 (antibody)
heavy: QVQLQESGPGLVKPSETLSLTCAVSGHSISHDHAWSWVRQPPGEGLEWIGFISYSGITNYNPSLQGRVTISRDNSKNTLYLQMNSLRAEDTAVYYCARSLARTTAMDYWGEGTLVTVSSASTKGPSVFPLAPSSKSTSGGTAALGCLVKDYFPEPVTVSWNSGALTSGVHTFPAVLQSSGLYSLSSVVTVPSSSLGTQTYICNVNHKPSNTKVDKKVEPKSCDKTHTCPPCPAPELLGGPSVFLFPPKPKDTLWISRTPEVTCVVVDVSHEDPEVKFNWYVDGVEVHNAKTKPREEQYNSTYRVVSVLTVLHQDWLNGKEYKCKVSNKALPAPIEKTISKAKGQPREPQVYTLPPSRDELTKNQVSLTCLVKGFYPSDIAVEWESNGQPENNYKTTPPVLDSDGSFFLYSKLTVDKSRWQQGNVFSCSVIHEALHYHYTQKSLSLSP
light: not shown
notes: EU numbering; copies: 2 + 2
B4: IgG1-F154 (antibody)
heavy: QVQLQESGPGLVKPSETLSLTCAVSGHSISHDHAWSWVRQPPGEGLEWIGFISYSGITNYNPSLQGRVTISRDNSKNTLYLQMNSLRAEDTAVYYCARSLARTTAMDYWGEGTLVTVSSASTKGPSVFPLAPSSKSTSGGTAALGCLVKDYFPEPVTVSWNSGALTSGVHTFPAVLQSSGLYSLSSVVTVPSSSLGTQTYICNVNHKPSNTKVDKKVEPKSCDKTHTCPPCPAPELLGGPSVFLFPPKPKDTLYISRTPEVTCVVVDVSHEDPEVKFNWYVDGVEVHNAKTKPREEQYNSTYRVVSVLTTLHQDWLNGKEYKCKVSNKALPAPIEKTISKAKGQPREPQVYTLPPSRDELTKNQVSLTCLVKGFYPSDIAVEWESNGQPENNYKTTPPVLDSDGSFFLYSKLTVDKSRWQQGNVFSCSVMHEALHYHYTQKSLSLSP
light: not shown
notes: EU numbering; copies: 2 + 2
B5: IgG1-F159 (antibody)
heavy: QVQLQESGPGLVKPSETLSLTCAVSGHSISHDHAWSWVRQPPGEGLEWIGFISYSGITNYNPSLQGRVTISRDNSKNTLYLQMNSLRAEDTAVYYCARSLARTTAMDYWGEGTLVTVSSASTKGPSVFPLAPSSKSTSGGTAALGCLVKDYFPEPVTVSWNSGALTSGVHTFPAVLQSSGLYSLSSVVTVPSSSLGTQTYICNVNHKPSNTKVDKKVEPKSCDKTHTCPPCPAPELLGGPSVFLFPPKPKDTLMISRTVEVTCVVVDVSHEDPEVKFNWYVDGVEVHNAKTKPREEQYNSTYRVVSVLTPLHQDWLNGKEYKCKVSNKALPAPIEKTISKAKGQPREPQVYTLPPSRDELTKNQVSLTCLVKGFYPSDIAVEWESNGQPENNYKTTPPVLDSDGSFFLYSKLTVDKSRWQQGNVFSCSVLHEALHYHYTQKSLSLSP
light: not shown
notes: EU numbering; copies: 2 + 2
B6: IgG1-F158 (antibody)
heavy: QVQLQESGPGLVKPSETLSLTCAVSGHSISHDHAWSWVRQPPGEGLEWIGFISYSGITNYNPSLQGRVTISRDNSKNTLYLQMNSLRAEDTAVYYCARSLARTTAMDYWGEGTLVTVSSASTKGPSVFPLAPSSKSTSGGTAALGCLVKDYFPEPVTVSWNSGALTSGVHTFPAVLQSSGLYSLSSVVTVPSSSLGTQTYICNVNHKPSNTKVDKKVEPKSCDKTHTCPPCPAPELLGGPSVFLFPPKPKDTLMISRTTEVTCVVVDVSHEDPEVKFNWYVDGVEVHNAKTKPREEQYNSTYRVVSVLTPLHQDWLNGKEYKCKVSNKALPAPIEKTISKAKGQPREPQVYTLPPSRDELTKNQVSLTCLVKGFYPSDIAVEWESNGQPENNYKTTPPVLDSDGSFFLYSKLTVDKSRWQQGNVFSCSVLHEALHYHYTQKSLSLSP
light: not shown
notes: EU numbering; copies: 2 + 2
B7: IgG1-F149 (antibody)
heavy: QVQLQESGPGLVKPSETLSLTCAVSGHSISHDHAWSWVRQPPGEGLEWIGFISYSGITNYNPSLQGRVTISRDNSKNTLYLQMNSLRAEDTAVYYCARSLARTTAMDYWGEGTLVTVSSASTKGPSVFPLAPSSKSTSGGTAALGCLVKDYFPEPVTVSWNSGALTSGVHTFPAVLQSSGLYSLSSVVTVPSSSLGTQTYICNVNHKPSNTKVDKKVEPKSCDKTHTCPPCPAPELLGGPSVFLFPPKPKDTLYISRTPEVTCVVVDVSHEDPEVKFNWYVDGVEVHNAKTKPREEQYNSTYRVVSVLTLLHQDWLNGKEYKCKVSNKALPAPIEKTISKAKGQPREPQVYTLPPSRDELTKNQVSLTCLVKGFYPSDIAVEWESNGQPENNYKTTPPVLDSDGSFFLYSKLTVDKSRWQQGNVFSCSVMHEALHYHYTQKSLSLSP
light: not shown
notes: EU numbering; copies: 2 + 2
B8: IgG1-F157 (antibody)
heavy: QVQLQESGPGLVKPSETLSLTCAVSGHSISHDHAWSWVRQPPGEGLEWIGFISYSGITNYNPSLQGRVTISRDNSKNTLYLQMNSLRAEDTAVYYCARSLARTTAMDYWGEGTLVTVSSASTKGPSVFPLAPSSKSTSGGTAALGCLVKDYFPEPVTVSWNSGALTSGVHTFPAVLQSSGLYSLSSVVTVPSSSLGTQTYICNVNHKPSNTKVDKKVEPKSCDKTHTCPPCPAPELLGGPSVFLFPPKPKDTLMISRTAEVTCVVVDVSHEDPEVKFNWYVDGVEVHNAKTKPREEQYNSTYRVVSVLTPLHQDWLNGKEYKCKVSNKALPAPIEKTISKAKGQPREPQVYTLPPSRDELTKNQVSLTCLVKGFYPSDIAVEWESNGQPENNYKTTPPVLDSDGSFFLYSKLTVDKSRWQQGNVFSCSVLHEALHYHYTQKSLSLSP
light: not shown
notes: copies: 2 + 2
B9: IgG1-F152 (antibody)
heavy: QVQLQESGPGLVKPSETLSLTCAVSGHSISHDHAWSWVRQPPGEGLEWIGFISYSGITNYNPSLQGRVTISRDNSKNTLYLQMNSLRAEDTAVYYCARSLARTTAMDYWGEGTLVTVSSASTKGPSVFPLAPSSKSTSGGTAALGCLVKDYFPEPVTVSWNSGALTSGVHTFPAVLQSSGLYSLSSVVTVPSSSLGTQTYICNVNHKPSNTKVDKKVEPKSCDKTHTCPPCPAPELLGGPSVFLFPPKPKDTLYISRTPEVTCVVVDVSHEDPEVKFNWYVDGVEVHNAKTKPREEQYNSTYRVVSVLTQLHQDWLNGKEYKCKVSNKALPAPIEKTISKAKGQPREPQVYTLPPSRDELTKNQVSLTCLVKGFYPSDIAVEWESNGQPENNYKTTPPVLDSDGSFFLYSKLTVDKSRWQQGNVFSCSVMHEALHYHYTQKSLSLSP
light: not shown
notes: EU numbering; copies: 2 + 2

These results are taken from US20200199241A1 (Chugai, published 2020).

T1 sequence (chain, as listed by the source limits assumed, chain 1 of 2): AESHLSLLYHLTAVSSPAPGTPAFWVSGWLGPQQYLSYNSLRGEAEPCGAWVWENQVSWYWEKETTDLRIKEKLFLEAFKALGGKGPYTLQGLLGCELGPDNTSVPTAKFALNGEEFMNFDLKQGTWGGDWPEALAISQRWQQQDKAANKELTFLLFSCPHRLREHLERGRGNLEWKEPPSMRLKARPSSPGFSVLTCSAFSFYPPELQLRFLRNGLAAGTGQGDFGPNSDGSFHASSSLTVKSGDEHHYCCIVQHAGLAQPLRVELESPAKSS
T1 sequence (P61769 21-119 limits assumed, chain 2 of 2): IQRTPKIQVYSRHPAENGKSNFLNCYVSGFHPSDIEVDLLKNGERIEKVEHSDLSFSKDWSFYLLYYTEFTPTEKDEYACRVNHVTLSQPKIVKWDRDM

The assay has as its target T1, human FcRn (soluble human FcRn complexed with β2-microglobulin) (human, UniProt P61769 21-119, limits assumed).
T1 construct: also called hFcRn
The assay is described as follows: SPR, pH 7.0.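 Also: antibodies captured on a Protein L sensor chip with human FcRn injected as analyte, KD calculated from fitted association and dissociation rate constants.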
The term Kd denotes the concentration at which binding is half-saturated. With B1, binding was characterised by a dissociation constant (Kd) of 240 nM.

Consider B2, for which the affinity, expressed as Kd, was 160 nM.

For B3, binding was characterised by a dissociation constant (Kd) of 850 nM.

With B4, the Kd amounted to 180 nM. Consider B5, for which binding was characterised by a dissociation constant (Kd) of 44 nM. Molecule B6 registered a Kd of 59 nM. On to B7, for which the Kd came out at 190 nM. In turn, B8 gave a Kd of 150 nM.

B9 returned a Kd of 270 nM.
